Data as given in patent publication US6994974B1, “Intracellular amyloid-beta binding (ERAB) polypeptide-related assays” (The trustees of Columbia University in the city of New York, priority 1997, dated 2006).

Tests used:
TrcHis-ERAB polypeptide = target: T1, TrcHis-ERAB polypeptide (Homo sapiens, UniProt Q99714); experiment: Binding of ^125I-amyloid-beta peptide (1–40) to TrcHis-ERAB polypeptide adsorbed to microtiter wells; settings: unlabelled competitor at 10 μM; tracer 100 nM; FIG. 2E
T1 construct: made in house; host or cells: E. coli
T1 sequence (Q99714 1-261): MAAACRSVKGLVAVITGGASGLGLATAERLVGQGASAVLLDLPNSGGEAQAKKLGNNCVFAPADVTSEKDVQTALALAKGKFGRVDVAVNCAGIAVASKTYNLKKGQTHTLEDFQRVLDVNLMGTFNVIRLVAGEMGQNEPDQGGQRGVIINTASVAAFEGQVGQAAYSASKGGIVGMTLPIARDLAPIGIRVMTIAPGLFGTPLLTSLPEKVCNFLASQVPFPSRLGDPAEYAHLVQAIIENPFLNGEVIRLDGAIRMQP
Protocol: FIGS. 2A, 2B, 2C, 2D, 2E, 2F, and 2G. […] FIG. 2A. SDS-PAGE (12%; reduced) followed by immunoblotting of TrcHis-ERAB polypeptide (FIG. 2A, lane 1; 2 μg) and TrcHis-chloramphenicol acetyltransferase (CAT; FIG. 2A, lane 2; 2 μg) fusion proteins using anti-ERAB polypeptide IgG (3 μg/ml). […] FIGS. 2B and 2C. […] Binding was analyzed by nonlinear least squares analysis using the method of Klotz and Hunston (60). FIG. 2E. […] FIGS. 2F and 2G. […] 0 indicates wells coated with albumin alone. […] Control TrcHis-CAT construct (Invitrogen) was also used to transform E. coli and the fusion protein was purified as above. Antibody to ERAB polypeptide was prepared by immunizing rabbits with ERAB polypeptide-derived peptides, corresponding to residues 100–116 and 133–147, conjugated to keyhole limpet hemocyanin. […] (for ERAB polypeptide) or overnight at 4° C. […] Unbound radioactivity was removed by washing wells five times with ice cold phosphate-buffered saline containing Tween 20 (0.05%), and bound radioactivity was eluted by incubation with Nonidet P-40 (1%).

[1] = system: ERAB polypeptide in neuroblastoma cells; experiment: Cellular distribution of ERAB polypeptide in neuroblastoma cells by immunofluorescence; type: cell-based, human; settings: peptide added to neuroblastoma cells; amyloid-beta peptide (1–42) 1 μM; FIGS. 4F, 4G
Protocol: FIGS. 4A, 4B, 4C, 4D, 4E, 4F, 4G, 4H, and 4I. Expression of ERAB polypeptide in cultured cells: localization to the endoplasmic reticulum and change in distribution following addition of amyloid-beta peptide. FIG. 4A. Immunoblotting of ERAB polypeptide in human neuroblastoma SK-N-SH (FIG. 4A, lane 1) and HeLa (FIG. 4A, lane 2) cells. Cell extracts (50 μg protein/lane) were subjected to immunoblotting using anti-ERAB polypeptide IgG (3 μg/ml). FIGS. 4B, 4C, and 4D. […] Scale bar=25 μm. FIG. 4E. Subcellular fractionation of ERAB nucleic acid-transfected human neuroblastoma cells. Transfected cells (5×10^8) were pelletted and fractionated in a series of sucrose steps (38%, 30% and 20%) by ultracentrifugation (100,000 for 3 hrs). […] Neuroblastoma cells were incubated in buffer alone or in the presence of amyloid-beta peptide (1–42; 1 μM), and the distribution of ERAB polypeptide was determined by immunofluorescence with anti-ERAB polypeptide IgG. […]
These observations also posed an apparent paradox, for, how could amyloid-beta peptide, most of which is extracellular, interact with a polypeptide associated with endoplasmic reticulum? […] Second, it was determined that ERAB polypeptide became associated with amyloid-beta peptide, and that amyloid-beta peptide-induced effects on ERAB polypeptide were not likely mediated by an indirect mechanism. […]

Competition for ^125I-amyloid-beta peptide (1–40) binding to TrcHis-ERAB polypeptide (TrcHis-ERAB polypeptide) | Substance | Change in cellular distribution of ERAB polypeptide [1]
had no effect | Arg-Gly-Asp-Ser (RGDS) | 
blocked binding | amyloid-beta peptide (1–20): synthetic amyloid-beta peptide (1–20) | 
had no effect | amyloid-beta peptide (25–35): synthetic amyloid-beta peptide (25–35) (GSNKGAIIGLM) | 
 | amyloid-beta peptide (1–42): exogenous amyloid-beta peptide (1–42) | marked change in the cellular localization
